Measurements published in patent US20160244525A1 (Genentech, published 2016).

T1: FGFR3-IIIc (human, UniProt P22607 23-375, limits assumed)
T1 construct: also called human FGFR3-IIIc
T1 sequence: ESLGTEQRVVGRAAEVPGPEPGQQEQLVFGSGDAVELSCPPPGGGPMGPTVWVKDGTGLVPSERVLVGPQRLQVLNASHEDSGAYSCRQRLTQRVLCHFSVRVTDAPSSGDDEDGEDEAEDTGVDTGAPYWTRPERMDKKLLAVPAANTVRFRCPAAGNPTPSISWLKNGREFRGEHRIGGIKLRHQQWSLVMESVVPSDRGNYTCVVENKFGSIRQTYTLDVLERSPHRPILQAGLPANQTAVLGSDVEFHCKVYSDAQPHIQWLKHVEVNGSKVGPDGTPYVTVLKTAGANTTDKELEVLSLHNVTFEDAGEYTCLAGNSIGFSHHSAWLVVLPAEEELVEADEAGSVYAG

T2: FGFR1-IIIb (human, UniProt P11362-19 22-376, limits assumed)
T2 construct: Soluble FGFR antigen in SPR
T2 sequence (looked up): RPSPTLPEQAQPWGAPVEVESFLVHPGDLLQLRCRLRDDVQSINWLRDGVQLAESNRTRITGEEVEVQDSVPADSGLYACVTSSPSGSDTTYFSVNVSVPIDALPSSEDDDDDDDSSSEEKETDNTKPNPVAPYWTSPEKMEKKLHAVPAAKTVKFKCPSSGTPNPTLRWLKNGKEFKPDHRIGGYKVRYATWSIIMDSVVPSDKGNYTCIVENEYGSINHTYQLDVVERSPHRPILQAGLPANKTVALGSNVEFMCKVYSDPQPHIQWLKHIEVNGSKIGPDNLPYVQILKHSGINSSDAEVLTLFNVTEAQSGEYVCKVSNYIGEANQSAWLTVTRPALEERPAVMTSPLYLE


Assays:
hKLB = biological target: T3, hKLB; test: FACS on 293 cells expressing hKLB, antibody at 0.8 ug/ml
T3 construct: also called human beta-Klotho on 293 cells
T3 sequence (chain, as listed by the source limits assumed): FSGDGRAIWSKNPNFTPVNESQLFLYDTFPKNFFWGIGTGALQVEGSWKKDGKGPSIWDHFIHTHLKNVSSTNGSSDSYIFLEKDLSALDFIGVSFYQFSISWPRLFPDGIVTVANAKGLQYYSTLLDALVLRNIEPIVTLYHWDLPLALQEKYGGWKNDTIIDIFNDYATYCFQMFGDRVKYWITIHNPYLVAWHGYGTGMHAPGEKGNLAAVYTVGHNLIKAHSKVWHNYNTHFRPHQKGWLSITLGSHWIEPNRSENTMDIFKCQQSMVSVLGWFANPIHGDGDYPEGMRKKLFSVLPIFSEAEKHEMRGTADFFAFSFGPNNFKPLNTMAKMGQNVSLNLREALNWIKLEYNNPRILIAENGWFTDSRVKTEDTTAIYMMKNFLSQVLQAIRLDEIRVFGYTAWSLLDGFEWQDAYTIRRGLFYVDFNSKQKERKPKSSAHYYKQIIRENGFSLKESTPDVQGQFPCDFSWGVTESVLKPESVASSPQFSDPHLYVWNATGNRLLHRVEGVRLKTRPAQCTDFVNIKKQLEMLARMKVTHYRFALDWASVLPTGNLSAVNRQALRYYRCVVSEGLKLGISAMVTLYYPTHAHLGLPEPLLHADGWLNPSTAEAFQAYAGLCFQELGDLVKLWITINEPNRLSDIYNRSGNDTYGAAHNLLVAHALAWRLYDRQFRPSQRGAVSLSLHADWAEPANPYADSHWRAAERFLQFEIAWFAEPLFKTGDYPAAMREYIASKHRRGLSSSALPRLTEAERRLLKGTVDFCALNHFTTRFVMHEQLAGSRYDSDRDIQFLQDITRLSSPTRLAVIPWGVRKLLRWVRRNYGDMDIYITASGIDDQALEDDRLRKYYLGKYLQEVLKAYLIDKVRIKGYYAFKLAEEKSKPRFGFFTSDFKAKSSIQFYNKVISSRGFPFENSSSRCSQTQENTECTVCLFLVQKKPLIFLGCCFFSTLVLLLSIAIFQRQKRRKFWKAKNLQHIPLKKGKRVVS

FGFR3-IIIc [1] = biological target: T1, FGFR3-IIIc; test: surface plasmon resonance (Biacore)
FGFR3-IIIc [2] = biological target: T1, FGFR3-IIIc; test: SPR (Biacore T100), IgG captured by anti-human Fc, FGFR flowed
Protocol: (§1) A saturated amount of anti-human Fc monoclonal antibody was immobilized onto a CM5 biosensor chip by following the product instructions. […] FGFR antigens of various concentrations were injected at a flow rate 30 μL/min. After each binding cycle, flow cells were regenerated using 3M MgCl₂. Kinetic analyses were performed using the T100 evaluation software to obtain the kinetic and affinity constants.

FGFR1-IIIb = biological target: T2, FGFR1-IIIb; test: as above
Protocol: as §1

FGFR2-IIIc [3] = biological target: T4, FGFR2-IIIc (human, UniProt P21802 22-377); test: as above
T4 construct: also called human FGFR2-IIIc; FGFR2-IIIc-His
T4 sequence (P21802 22-377 limits assumed): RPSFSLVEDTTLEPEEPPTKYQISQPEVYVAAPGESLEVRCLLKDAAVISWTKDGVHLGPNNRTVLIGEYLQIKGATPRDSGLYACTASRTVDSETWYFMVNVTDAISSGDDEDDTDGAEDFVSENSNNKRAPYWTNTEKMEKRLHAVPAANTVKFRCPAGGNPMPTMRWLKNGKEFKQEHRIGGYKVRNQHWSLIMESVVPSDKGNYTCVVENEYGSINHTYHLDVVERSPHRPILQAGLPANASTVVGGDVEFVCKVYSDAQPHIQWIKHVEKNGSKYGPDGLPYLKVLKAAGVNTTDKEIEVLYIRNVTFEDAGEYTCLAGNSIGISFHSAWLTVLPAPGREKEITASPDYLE
Protocol: as §1

FGFR3-IIIc [4] = biological target: T1, FGFR3-IIIc; test: blocking ELISA: FGFR3-IIIc-Fc captured on an anti-human Fc plate, antibody titrated, FGF-1 (with heparin) is the blocked ligand, bound FGF-1 read as OD450
Protocol: The plate was washed 5 times before being added with the antibody and FGF ligand mixtures, which was prepared as 49 μL 100 ng/mL FGF ligand, 1 μL 25 mg/mL Heparin (Sigma-Aldrich) and 50 μL antibody dilutions. After shaking at RT for 2 h, the plate was washed 5 times. Bound ligand was detected by subsequent incubations at RT with 0.5 μg/mL biotinylated anti-FGF antibodies (R&D Biosystems) for 0.5 h, 1:2,500-diluted Streptavidin-HRP (Invitrogen) for 0.5 h and the TMB substrate until enough color development.

FGFR3-IIIc [5] = biological target: T1, FGFR3-IIIc; test: SPR
Protocol: as §1
(§2) 1.3 variants were determined by capturing FGFR4-Fc and flowing the antibody Fab fragments (Table 12).

FGFR2-IIIc [6] = biological target: T4, FGFR2-IIIc; test: SPR
Protocol: as §1, §2

Row | binding result (hKLB) | Kd (FGFR3-IIIc [1]) [nM] | Binder | other results
1 | binds | – | 5F8 (antibody, V domains shown) VH: EVQLQQSGTELVRPGASVKLSCTSSDFNIKDTYIHWVKQRPEQGLDWLGRIDPANGNTKYDPKFQGKAAMTSDTSSNTAYLRLSSLTSEDTAVYYCASSGNYGAMDYWGQGTSVTVSS VL: ESVLTQSPALMSASLGEKVTMTCRASSSVNHMYWYQQKSDASPKLWIYYTSTLAPGVPARFSGSGSGNSYSLTISSMEGEDAATYYCQQFTISPSMYTFGGGTKLEIK | –
2 | binds | – | 8H7 (antibody, V domains shown) VH: QVQLQQPGAEIVKPGASVRLSCKASGYSFTSYWIHWVKQRPGQGLEWIGEIDPSVSNSNYNQKFKGKATLTADKSSSTAYMQLSGLTSEDSAVYFCVRLGVMVYGSSPFWFAYWGQGTLVTVSA VL: DIVMTQSQKFMSTSVGDRVSITCKASQFVSDAVAWYQQKPGQSPKLLICSASYRYTGVPDRFTGSGSGTDFTFTISSVRTEDLAVYYCQQHYIVPYTFGGGTTLEIE | –
3 | binds | – | 24A1 (antibody, V domains shown) VH: QVQLKQSGAELVRPGTSVTLSCKASGYTFTDYEMHWMKQTPVYGLEWIGAIWPENADSVYNQKFKGKVTLTADKSSSTAYMDLRSLTSEDSAVYYCTREGGNYWGQGTTLTVSS VL: not shown | –
4 | binds | – | 14C6 (antibody, V domains shown) VH: QIQLQQSGAELMKPGASVRMSCKASGYTFSSYWIEWVKQRSGHGLEWIGEIFPGGGSTIYNENFRDKATFTADTSSNTAYMQLSSLTSEDSAVYFCARRGYYDAAWFDYWGQGTLVTVSA VL: QIVLTQSPAIMSASPGERVTLTCSASSSLSSSYLYWYQQKPGSSPKLWIYGASNLASGVPGRFSGSGSGTSYSLTISSMEAEDAASYFCHQWSSYPLTFGSGTKLELK | –
5 | binds | – | 11D4 (antibody, V domains shown) VH: QVQVKESGPGLVAPSQSLSITCTVSGFSLTNYGVSWIRQPPGKGLEWLGVIWGDGSINYHSALISRLTITKDNSKSQVFLKLNSLEADDTATYYCAKTHDWFDYWGQGTLVTVSA VL: DIQMTQTPSSLSASLGDRVTINCRASQDISNYFNWYQQKPNGTIKLLIYYTSRLQSGVPSRFSGSGSGTDYSLTISNLEQEDKATYFCHQVRTLPWTFGGGTKLEIK | –
6 | binds | – | 25F7 (antibody, V domains shown) VH: EVQLQQSGAELLKPGASVRLSCTASGFNIQDTFTHWVRQRPEQGLEWIGRIDPSNGNTKYDPKFQGKAKILADTSSNTAYLQLIGLTSEDTAVYYCASRALGNGYAMDYWGQGTSVTVSS VL: DIQMTQSSSYLSVSLGGRVTITCKASDHINNWLAWYQQKPGNAPRLLISGASNLETGIPSRFSGSGSGKDYTLTITSLQTEDVATYYCQQYWNTPFTFGSGTKLEIK | –
7 | – | 0.28 | 2B.1.3.12 (antibody, human IgG1, kappa, V domains shown, Full IgG1/kappa chains; also called Mab 2B.1.3.12) VH: EVQLVESGGGLVQPGGSLRLSCAASGFPFTSTGISWVRQAPGKGLEWVGRTHLGDGSTNYADSVKGRFTISADTSKNTAYLQMNSLRAEDTAVYYCARTYGIYDTYDMYTEYVMDYWGQGTLVTVSS VL: DIQMTQSPSSLSASVGDRVTITCRASQDVDTSLAWYKQKPGKAPKLLIYSASFLYSGVPSRFSGSGSGTDFTLTISSLQPEDFATYYCQQSTGHPQTFGQGTKVEIKR | Kd (FGFR3-IIIc [2]): 0.72 nM; binding result (FGFR1-IIIb): no binding (tested: 500 nM); Kd (FGFR2-IIIc [3]): 6.1 nM; IC50 (read off the curve) (FGFR3-IIIc [4]): 2 to 3 nM; Kd (FGFR3-IIIc [5]): 0.72 nM; Kd (FGFR2-IIIc [6]): 6.1 nM

More lines, now with the values behind:

Row | Binder | binding result (hKLB) | Kd (FGFR3-IIIc [1]) [nM] | other results
8 | 2B1.1.2 (antibody, V domains shown) VH: EVQLVESGGGLVQPGGSLRLSCAASGFTFTSTGISWVRQAPGKGLEWVGRYWAWDGSTNYADSVKGRFTISADTSKNTAYLQMNSLRAEDTAVYYCARTYGIYDTYDNYTEYVMDYWGQGTLVTVSS VL: DIQMTQSPSSLSASVGDRVTITCRASQDVDTSLAWYKQKPGKAPKLLIYSASFLYSGVPSRFSGSGSGTDFTLTISSLQPEDFATYYCQQSTGHPQTFGQGTKVEIKR | – | 0.0908 | –
9 | 2B.1.1.6 (antibody, human IgG1, kappa, V domains shown, Full IgG1/kappa chains) VH: EVQLVESGGGLVQPGGSLRLSCAASGFTFTSTGISWVRQAPGKGLEWVGRYWAWDGSTNYADSVKGRFTISADTSKNTAYLQMNSLRAEDTAVYYCARTYGIYDTYDEYTEYVMDYWGQGTLVTVSS VL: DIQMTQSPSSLSASVGDRVTITCRASQDVDTSLAWYKQKPGKAPKLLIYSASFLYSGVPSRFSGSGSGTDFTLTISSLQPEDFATYYCQQSTGHPQTFGQGTKVEIKR | – | 0.0796 | –
10 | 2B1.1.8 (antibody, V domains shown) VH: EVQLVESGGGLVQPGGSLRLSCAASGFPFTSLGISWVRQAPGKGLEWVGRYWAWDGSTNYADSVKGRFTISADTSKNTAYLQMNSLRAEDTAVYYCARTYGIYDIYEKYTEYVMDYWGQGTLVTVSS VL: DIQMTQSPSSLSASVGDRVTITCRASQDVDTSLAWYKQKPGKAPKLLIYSASFLYSGVPSRFSGSGSGTDFTLTISSLQPEDFATYYCQQSTGHPQTFGQGTKVEIKR | – | 0.112 | –
11 | 2B.1.3.10 (antibody, human IgG1, kappa, V domains shown, Full IgG1/kappa chains; also called Mab 2B.1.3.10) VH: EVQLVESGGGLVQPGGSLRLSCAASGFPFTSQGISWVRQAPGKGLEWVGRTHLGDGSTNYADSVKGRFTISADTSKNTAYLQMNSLRAEDTAVYYCARTYGIYDTYDKYTEYVMDYWGQGTLVTVSS VL: DIQMTQSPSSLSASVGDRVTITCRASQDVDTSLAWYKQKPGKAPKLLIYSASFLYSGVPSRFSGSGSGTDFTLTISSLQPEDFATYYCQQSTGHPQTFGQGTKVEIKR | – | – | Kd (FGFR3-IIIc [2]): 0.25 nM; binding result (FGFR1-IIIb): no binding (tested: 500 nM); Kd (FGFR2-IIIc [3]): 1.1 nM; IC50 (read off the curve) (FGFR3-IIIc [4]): 2 to 3 nM
12 | 2B1.1.4 (antibody, V domains shown) VH: EVQLVESGGGLVQPGGSLRLSCAASGFTFTSTGISWVRQAPGKGLEWVGRYWAWDGSTNYADSVKGRFTISADTSKNTAYLQMNSLRAEDTAVYYCARTYGIYDIYGGYTEYVMDYWGQGTLVTVSS VL: DIQMTQSPSSLSASVGDRVTITCRASQDVDTSLAWYKQKPGKAPKLLIYSASFLYSGVPSRFSGSGSGTDFTLTISSLQPEDFATYYCQQSTGHPQTFGQGTKVEIKR | – | 0.153 | –
13 | 2B1.1.12 (antibody, V domains shown) VH: EVQLVESGGGLVQPGGSLRLSCAASGFPFTSTGISWVRQAPGKGLEWVGRYWAWDGSTNYADSVKGRFTISADTSKNTAYLQMNSLRAEDTAVYYCARTYGIYDTYDMYTEYVMDYWGQGTLVTVSS VL: DIQMTQSPSSLSASVGDRVTITCRASQDVDTSLAWYKQKPGKAPKLLIYSASFLYSGVPSRFSGSGSGTDFTLTISSLQPEDFATYYCQQSTGHPQTFGQGTKVEIKR | – | 0.142 | –
14 | 2B1.1.10 (antibody, V domains shown) VH: EVQLVESGGGLVQPGGSLRLSCAASGFPFTSQGISWVRQAPGKGLEWVGRYWAWDGSTNYADSVKGRFTISADTSKNTAYLQMNSLRAEDTAVYYCARTYGIYDTYDKYTEYVMDYWGQGTLVTVSS VL: DIQMTQSPSSLSASVGDRVTITCRASQDVDTSLAWYKQKPGKAPKLLIYSASFLYSGVPSRFSGSGSGTDFTLTISSLQPEDFATYYCQQSTGHPQTFGQGTKVEIKR | – | 0.198 | –
